As usually defined, the stoichiometry N is the number of molecules, sites or subunits per partner or assembly.

Test [1] concerns the target naïve EcHsp60 K266A (Epinephelus coioides (grouper)). Nature of the test: SEC; WT and mutated naïve EcHsp60 purified at 4°C; analytical Superdex 200 Increase 10/300 GL.
Test [2] concerns the target mature Epinephelus coioides mtHsp60 (EcHsp60), without the mitochondrial importing signal (Epinephelus coioides (grouper)). Nature of the test: SEC; protein homogenised and purified at 4°C (LT); Superdex S200pg 16/600, 25 mM Tris-HCl pH 7.6, 150 mM NaCl, 1 ml/min.
The target is the same in test [3]. In words: cross-linking; dimeric EcHsp60 at 0.6 mg/ml, BS^3 0.15 to 0.6 mM, 37°C 30 min, phosphate buffer pH 7.6 with 300 mM NaCl, SDS-PAGE.
For test [4] the target is unchanged. Nature of the test: SEC; protein homogenised and purified at room temperature (RT, 25°C); Superdex S200pg 16/600, 25 mM Tris-HCl pH 7.6, 150 mM NaCl, 1 ml/min. (In gel filtration, larger molecules generally elute earlier.)
Test [5] has the same target. Nature of the test: negative-stain TEM with single particle analysis; purified oligomeric EcHSP60 at 1 mg/ml, 2% uranyl acetate, 2D classification.
For test [6], the target named is naïve EcHsp60 R264AK266A (Epinephelus coioides (grouper)). Nature of the test: SEC; WT and mutated naïve EcHsp60 purified at 4°C; analytical Superdex 200 Increase 10/300 GL.
Test [7] shares this target. Nature of the test: negative-stain TEM with single particle analysis; purified oligomeric EcHSP60 at 1 mg/ml, 2% uranyl acetate, 2D classification.

Substance naïve EcHsp60 K266A (natural protein) came in with a stoichiometry N in test [1] of 7.

On to “mature Epinephelus coioides mtHsp60 (EcHsp60), without the mitochondrial importing signal (natural protein)”, for which the stoichiometry N in test [2] was found to be 2; in test [3], 2; in test [4], 7; in test [5], 7.

Take “naïve EcHsp60 R264AK266A (natural protein)”: the stoichiometry N in test [6] and in test [7] was 7 each time.

The record behind these values is PMC10053435.
